Broadly, the Kd is the constant that tells how readily two partners part at equilibrium. Lower therefore signals tighter binding.

One test addresses TSLP, Q969D9. In words: Kd (SPR).
The target of another test is TNFRSF9, Q07011. In words: Kd (SPR).

Substitutions are numbered along the chain they refer to.

B1: unnamed (protein)
chain 1: QMQLVESGGGVVQPGRSLRLSCAASGFTFRTYGMHWVRQAPGKGLEWVAVIWYDGSNKHYADSVKGRFTITRDNSKNTLNLQMNSLRAEDTAVYYCAREPPLFYSSWSLDNWGQGTMVTVSS
chain 2: SYVLTQPPSVSVAPGQTARITCGGNNLGSKSVHWYQQKPGQAPVLVVYDDSDRPSWIPERFSGSNSGNTATLTISRGEAGDEADYYCQVWDSSSDHVVFGGGTKLTVL
With B1, the Kd with TSLP, Q969D9 is 0.203 nM.

B2: unnamed (protein)
chain 1: QMQLVESGGGVVQPGRSLRLSCAASGFTFRTYGMHWVRQAPGKGLEWVAVIWYDGSNKHYADSVKGRFTITRDNSKNTLNLQMNSLRAEDTAVYYCNAAIRTTVRTSAQEYWGQGTMVTVSS
chain 2: B1 chain 2
B2 registered a Kd with TSLP, Q969D9 of 103 nM.

B3: unnamed (protein)
chain 1: QMQLVESGGGVVQPGRSLRLSCAASGFTFRTYGMHWVRQAPGKGLEWVAVIWYDGSNKHYADSVKGRFTITRDNSKNTLNLQMNSLRAEDTAVYYCARSPRYDWYWEAFDVWGQGTMVTVSS
chain 2: B1 chain 2
In turn, B3 yielded a Kd with TSLP, Q969D9 of 240 nM.

B4: unnamed (protein)
chain 1: B3 chain 1 with S99D, P100E, R101S, Y102T, D103G, W104D, W106Y, E107Y, A108Y, F109M
chain 2: B1 chain 2
In turn, B4 came in with a Kd with TSLP, Q969D9 of 229 nM.

B5: unnamed (protein)
chain 1: QMQLVESGGGVVQPGRSLRLSCAASGFTFRTYGMHWVRQAPGKGLEWVAVIWYDGSNKHYADSVKGRFTITRDNSKNTLNLQMNSLRAEDTAVYYCTRDGGLLFAYYAMDYWGQGTMVTVSS
chain 2: B1 chain 2
Molecule B5 returned a Kd with TSLP, Q969D9 of 110 nM.

B6: unnamed (protein)
chain 1: B3 chain 1 with S99P, R101Y, D103Y, W104G, Y105T, W106T, E107Y, A108Y, V111Y
chain 2: B1 chain 2
In the case of B6, the Kd in the test with TSLP, Q969D9 is 300 nM.

B7: unnamed (protein)
chain 1: B1 chain 1 with E99D, P100R, P101F, L102D, F103V, Y104A, S106G, W107S, L109F, N111F
chain 2: B1 chain 2
The molecule B7 displayed a Kd with TSLP, Q969D9 of 126 nM.

B8: unnamed (protein)
chain 1: B3 chain 1 with W104Y
chain 2: B1 chain 2
For B8, in the test with TSLP, Q969D9, the Kd is 290 nM.

B9: unnamed (protein)
chain 1: B3 chain 1 with S99A, W104Y, W106L
chain 2: B1 chain 2
B9 gave a Kd in the test with TSLP, Q969D9 of 238 nM.

B10: unnamed (protein)
chain 1: B1 chain 1 with E99G, P101F, L102S, F103R, S105D, S106Y, W107F, S108A, L109M
chain 2: B1 chain 2
Take B10: the Kd with TSLP, Q969D9 came to 557 nM.

B11: unnamed (protein)
chain 1: B3 chain 1 with S99A, W104D, Y105R
chain 2: B1 chain 2
As for B11, in the test with TSLP, Q969D9, the Kd is 193 nM.

B12: unnamed (protein)
chain 1: B3 chain 1 with S99G, R101M, Y102A, D103L, W104L, W106Y, E107R, A108G, V111Y
chain 2: B1 chain 2
Turning to B12, the Kd with TSLP, Q969D9 was found to be 183 nM.

B13: unnamed (protein)
chain 1: QMQLVESGGGVVQPGRSLRLSCAASGFTFRTYGMHWVRQAPGKGLEWVAVIWYDGSNKHYADSVKGRFTITRDNSKNTLNLQMNSLRAEDTAVYYCANLKDSRYSGSYYDYWGQGTMVTVSS
chain 2: B1 chain 2
As to B13, in the test with TSLP, Q969D9, the Kd was found to be 523 nM.

B14: unnamed (protein)
chain 1: B3 chain 1 with S99A, W104T, W106Y
chain 2: B1 chain 2
Molecule B14 yielded a Kd with TSLP, Q969D9 of 83.9 nM.

B15: unnamed (protein)
chain 1: B3 chain 1 with D103Y, W106Y
chain 2: B1 chain 2
In the test with TSLP, Q969D9, B15 registered a Kd of 81.9 nM.

B16: unnamed (protein)
chain 1: QMQLVESGGGVVQPGRSLRLSCAASGFTFRTYGMHWVRQAPGKGLEWVAVIWYDGSNKHYADSVKGRFTITRDNSKNTLNLQMNSLRAEDTAVYYCVRGSITWPTEYYLDYWGQGTMVTVSS
chain 2: B1 chain 2
As to B16, in the test with TSLP, Q969D9, the Kd worked out at 426 nM.

B17: unnamed (protein)
chain 1: EVQLVQSGAEVKKPGESLRISCKGSGYTFSSYWISWVRQMPGKGLEWMGKIYPGDSYTNYSPSFQGQVTISADKSISTAYLQWSSLKASDTAMYYCARGYGILDYWGQGTLVTVSS
chain 2: SYELTQPPSVSVSPGQTASITCSGDNIGDQYAHWYQQKPGQSPVLVIYQDKNRPSGIPERFSGSNSGNTATLTISGTQAMDEADYYCATYTGFGSLAVFGGGTKLTVL
Turning to B17, the Kd in the test with TNFRSF9, Q07011 is 59.4 nM.

B18: unnamed (protein)
chain 1: B17 chain 1 with L103F
chain 2: B17 chain 2
In the test with TNFRSF9, Q07011, B18 yielded a Kd of 58.6 nM.

B19: unnamed (protein)
chain 1: B17 chain 1 with S31N, Y100E, I102L, L103F
chain 2: B17 chain 2
With B19, the Kd in the test with TNFRSF9, Q07011 came out at 51 nM.

The values are drawn from the FLAb antibody collection (doi:10.1101/2023.12.08.570889).
